# Source: the RNAGym collection of RNA variant scans (doi:10.1073/pnas.2313332121)
# This sample holds only a part of the variants without activity.
# B1: TPR 5TU (parent)
# chain: GGAUCUUCUCGAUCUAACAAAAAAGACAAAUCUGCCACAAAGCUUGAGAGCAUCUUCGGAUGCAGAGGCGGCAGCCUUCGGUGGCGCGAUAGCGCCAACGUUCUCAACUAUGACACGCAAAACGCGUGCUCCGUUGAAUGGAGUUUAUCAUG
# Variants of: B1
# Test: polymerase ribozyme fitness, log enrichment relative to wild type (log ratio); higher = more active; in vitro selection for triplet polymerase activity
# How it was run: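 After PCR construction and transcription, each subunit's mutant library from a heterodimeric triplet polymerase ribozyme was annealed with a biotinylated primer, the partner subunit and triplets. Incubation was frozen, at −7 °C, and extended constructs were gel-excised, bound to streptavidin beads and amplified by RT-PCR, in one selection round done in triplicate. Fitness is the logarithm of a genotype's enrichment divided by that of the wild type, from inverse-variance-weighted replicate averages of Illumina-sequenced inputs and outputs. The base of the logarithm is 2, and genotypes needed ≥10 input reads and ≥1 read per output.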
row,Variant,polymerase ribozyme fitness (log ratio)
1,C85G A98U G124U A147C,-2.53
2,G84A C93G,-3.77
3,U82G A142C,-0.83
4,C85A G117U,-0.587
5,G83U G141C,-1.18
6,G86U A98C U101C,-0.908
7,C87A A98U,-4.12
8,C85G C87U,-3.28
9,G84A U101G A122U U146C,-0.376
10,C85A G133C,-3.5
11,G84A A115U U134G,-4.01
12,C87G A122U C129U U134C,≤ -4.2
13,U82A G83A C99U G117A U144A,-2.53
14,G84A C108U,-2.74
15,G84A U102C C105A A107G,≤ -4.2
16,C85G A122G,-3.42
17,C87A U135C,≤ -4.2
18,C85A A115G,-2.38
19,G83A G92U G133C A142G,-3.79
20,G83C A107U G143A U146C,≤ -4.2
21,C87G A115U C116G,-3.97
22,C85U A142U,-0.394
23,C85A C96A U101C G143A,≤ -4.2
24,C85A C96A G128C,-4.03

row,Variant,polymerase ribozyme fitness (log ratio)
1,G83A C118U G126A,-2.89
2,G84A A89G A98G C114U,-2.55
3,C87A C93G,≤ -4.2
4,G83A A121G U145G U148G,≤ -4.2
5,C85G C123U G141A,-0.441
6,C85A U104A A115G,-3.42
7,C85U C118G,-0.62
8,C85A C116U,-1.08
9,C87A A97G,≤ -4.2
10,G84A C125A C132A G140U,-1.25
11,G83A G140C,-3.99
12,G83A G92U A119G A122C C149G,-4.14
13,G86A A89U U144C,-1.64
14,C85U A120G A150C,-3.75
15,G86A G94A A110G,≤ -4.2
16,U82G A115U,-1.61
17,G84A A98U,-0.469
18,G83A C131U U139A G143A,≤ -4.2
19,C85G A98G,-0.929
20,C85G A98U,-2.9
21,C85G A107U G126U C132U,≤ -4.2
22,G84A C87G A110G,≤ -4.2
23,C87A U90C C105U,-3.59
24,U82G C105U,1.06

row,Variant,polymerase ribozyme fitness (log ratio)
1,C85G C103A,≤ -4.2
2,C85U C93A,-2.72
3,C85U C93U,-1.93
4,C87G G88C G136A,≤ -4.2
5,C85U C95A G117C,-0.698
6,G83C G140U,-4.01
7,G84C U102A A147U,-3.01
8,G84U A91G,-2.81
9,C87A C95U A107U,≤ -4.2
10,G84A A121G C123U C131U,0.94
11,C85A U139C,-4.1
12,C85A C116U A122C,-4.17
13,G86U A89U,-2.62
14,C85A G143A,-1.99
15,C85A U135G,≤ -4.2
16,C85G A98U C129A U134C,-4.18
17,U82G C85A A89G G133A A142C,≤ -4.2
18,G84A G94C,-1.72
19,G84U C87G,-3.88
20,U82A G88A A115U A121U,≤ -4.2
21,G86U U144A,-3.12
22,G84U G126A G136U,-3.56
23,C85U G136A,0.767
24,C87G A91C A122G,≤ -4.2

row,Variant,polymerase ribozyme fitness (log ratio)
1,G83C G86A C95A A120C,≤ -4.2
2,U82C C95U,-1.92
3,G86U C99U C103G C131G,≤ -4.2
4,G86A G141C,-1.01
5,C85A C103A,-4.12
6,C85A C103G,-3.36
7,G86C C105G,-3.67
8,G83A A115G G136A U144C,-3.84
9,G84A C93G C125A G133U,≤ -4.2
10,G83U A91C,≤ -4.2
11,C85A C95U,-1.98
12,G84A A120U C123A G126U,0.597
13,G84U C99U,-1
14,C85G A122G C123A,-2.57
15,C87G C93U G124C,≤ -4.2
16,C87A G128A U146C U148A,≤ -4.2
17,C85A A106C G140C,≤ -4.2
18,G86U C96U,-2.68
19,C85G C99U G140U,≤ -4.2
20,C85G C99U,-3.51
21,C85G C99A,-3.3
22,C85G A121U,-3.11
23,G83C C95U G136A C149U,-2.18
24,G83U C114G A115U A119U U134A,≤ -4.2

row,Variant,polymerase ribozyme fitness (log ratio)
1,G83A C96U,-0.419
2,C85U U135C,-2.09
3,C85U U135A,-0.52
4,C87A C95A,≤ -4.2
5,C87G G100C,-3.97
6,G86C A137G,-3.37
7,G84C C118A C125U G136U,-4.09
8,G84A G143A,-1.65
9,U82G C85G G92C C114A,≤ -4.2
10,G83A G117C,-0.0387
11,G84A C87A,≤ -4.2
12,C87A A119G A137G,≤ -4.2
13,C85U A97C G124U,0.338
14,C85U C118G C125A,-0.0117
15,G83A A119C A120U C149U,-1.37
16,C87G C132U,≤ -4.2
17,G86C U135A,-3.03
18,G84A G112C,-2.71
19,G86C C93G C105U,0.694
20,G83C C85U C87U,-2.71
21,C85A C103U C123G A147U,-0.703
22,U82A G86C,-2.69
23,C85A C96G,-2.42
24,C85A C96U,-2.63

row,Variant,polymerase ribozyme fitness (log ratio)
1,G83A A89G C116U,-1.69
2,G84A G141A,-0.675
3,U82C C93G,-3.99
4,G83U G128C,-3.55
5,G84U G88A,-4.15
6,G86A U148A,-3.4
7,U82C C131G,-2.45
8,G84U C85G C96G,-3.84
9,G86U C116G,-1.04
10,G86U C116U,-1.03
11,G84A U127A,-3.74
12,C85A C105U G141C,-3.45
13,C85G U102A G133U A137U G141C,-3.8
14,C87A U145A,-4.17
15,C85U G124A G141C,-0.515
16,C85A G86U,-3.2
17,U82G A98G,0.302
18,G83A C93U A121U,-2.08
19,C85U C114A,-3.52
20,C87A,≤ -4.2
21,C85U U101C,-0.749
22,G83C A121G,-0.25
23,U82G G88C C93U C95G,≤ -4.2
24,G84A U139A,-4.11

row,Variant,polymerase ribozyme fitness (log ratio)
1,C85G A107G,≤ -4.2
2,G86A C93G C99G U146A,-3.32
3,U82C A89C C96U U101G A115C,-1.01
4,G83U A91U A120U A138U,≤ -4.2
5,C85G U151C,-4.2
6,C85G U144A C149U,-3.7
7,G86U A107G C116A G136U A138C,≤ -4.2
8,C85A C105U A150G,-2.08
9,G84C C93U,-4.07
10,G86U U101G,-2.21
11,C85U G140C,-2.76
12,C85U A107U A138G A142G,≤ -4.2
13,C85U G126A,0.641
14,C85U G126C,-1.23
15,C85U G126U,-1.6
16,G84A U109A A115C C123A,-1.8
17,C85U G140U U146C,-2.87
18,C87A G88C C96U C118U U146C,≤ -4.2
19,G83A G136A,-0.0141
20,C87G C93G,-3.76
21,G86C C99G A106G G124U G136A U148C,≤ -4.2
22,G84U A122C,-2.13
23,C85G C96A A97G U102A C132A U135A,≤ -4.2
